Source: patent US20240209089A1 (SUZHOU SMARTNUCLIDE BIOPHARMACEUTICAL, published 2024)
Where “and” joins values, the source holds several entries; their conditions need not be identical. Identical values can stand only once.

Tests used:
CD8α-Fc fusion protein [1] = target: T1, CD8α-Fc fusion protein (human); assay: ELISA on coated CD8α-Fc, relative to C2-cHis control
T1 construct: also called CD8 α-Fc protein; CD8α-Fc tag antigen
Description: (§1) The CD8 α-Fc protein was transiently expressed by HEK293 and purified by protein A affinity chromatography. The plate was coated with the obtained CD8α-Fc protein in a concentration of 0.5 μg/well at 4° C. overnight, and then the gradient dilution series of the obtained anti-CD8α single domain antibody protein was added to react for 1 hour at room temperature. After washing, anti-his horseradish peroxidase labeled antibody was added to react for 1 hour at room temperature. After washing, a chromogenic solution was added, and an absorption value at 450 nm was read. The data processing and plotting analysis were performed by using software SotfMaxPro v5.4. […] Of the 10 selected antibodies (see Table 5 for details), the relative activities of different anti-CD8α single domain antibodies were compared by using C2-cHis as control, so as to reflect the affinity of the antibodies on CD8α. Of the 10 tested antibodies, C37, C42, C46, S5 and S36 have relatively high binding activity.

CD8α-Fc fusion protein [2] = target: T1, CD8α-Fc fusion protein; assay: ELISA on coated CD8α-Fc, anti-his-HRP, four-parameter fit
Description: as §1

[3] = target: T2, human CD8α full-length protein (human, UniProt P01732 22-235); assay: flow cytometry on MC38-CD8α cells, secondary antibody-PE
T2 construct: whole, on cells; The same entry is used for MC38-CD8α transfectants and for human CD8+ T cells from peripheral blood; the assay field says which cells; also called cell surface CD8α; MC38-CD8α cells
T2 sequence (P01732 22-235): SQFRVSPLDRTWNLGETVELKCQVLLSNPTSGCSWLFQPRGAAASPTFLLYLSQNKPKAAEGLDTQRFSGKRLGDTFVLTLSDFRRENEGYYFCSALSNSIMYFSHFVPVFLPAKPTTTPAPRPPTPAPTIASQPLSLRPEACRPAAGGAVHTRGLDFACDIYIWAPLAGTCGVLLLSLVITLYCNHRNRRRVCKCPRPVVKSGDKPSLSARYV
Description: Mouse colon cancer MC38 cell lines stable transfected with human CD8α full-length protein gene were constructed to obtain MC38 cells (MC38-CD8α cells) stably expressing human CD8α proteins on the cell membrane. Prior to use, the cells were cultured to >90% convergence. The anti-CD8α single domain antibody was used to perform flow cytometry on these cells for quantitative analysis of indirect immunofluorescence staining so as to determine the quantity of receptors on surface of each cell.
The cells were collected and suspended to a concentration of 2.5×10⁶ cells/mL. 200 μL of cell aliquot samples were mixed with 20 μL of primary antibody, and the obtained mixture was incubated for 30 min on ice. The cells were centrifuged, washed and re-suspended, then 5 μL of secondary antibody-PE conjugate was added, and then the above mixture was incubated for 30 minutes on ice. The cells were washed twice, re-suspended and underwent flow cytometry on BD FACSCelesta™. For each tube, at least 5×10⁴ events were collected. All the analyses were single colors, and PE was detected in […].

[4] = target: T2, human CD8α full-length protein; assay: radioligand saturation binding on MC38-CD8 cells, 4 °C, one-site fit
Description: (§2) Receptor binding reaction: a radioligand saturation method was used, total binding and non-specific binding groups were included.
(§3) The cells were incubated for 2 h at 4° C. After that, the supernatant was extracted, the cells were washed 6 times with PBS pre-cooled at 4° C., and 200 μL of PBS was added into each well every time. Finally, the filter membrane was collected, the radioactivity count of each tube of sample and standard sample was measured on the γ counter. Finally, saturation curve fitting was performed by using Prism 7.0 (GraphPad Software, Inc.) software according to the single-point binding model, and then KD and Bmax were calculated.

[5] = target: T2, human CD8α full-length protein; assay: saturation radioligand binding on MC38-CD8 cells, 2 h at 4 °C, one-site fit; panel assigned through the KD of Table 8 (3.8 nM, 125I-SNA006c)
Description: as §2, §3

CD8α-Fc fusion protein [6] = target: T1, CD8α-Fc fusion protein; assay: ELISA on coated CD8α-Fc, antibody after exchange into NaHCO3 buffer, relative to the uncoupled antibody as standard
Description: (§4) By using PD-10 column (GE), the buffer of the CD8α-cHis single domain antibody (including C37, C46 and S5) was changed to a NaHCO3 buffer solution with a certain pH, and p-SCN-Bn-NOTA (Macrocyclics, article No. B-605) was dissolved into DMSO with a concentration of 25 mg/mL, and the p-SCN-Bn-NOTA solution whose molar was twice that of lysine on the single domain antibody was added into the CD8α single domain antibody, the above materials reacted for a certain time period at room temperature, the conjugated product was purified by PD-10 column (GE) and concentrated by ultrafiltration.
(§5) The activity of the above CD8α-NOTA after labeling was determined by ELISA. The specific method is as follows: the CD8α-Fc fusion protein was placed in the coated plate in a concentration of 5 μg/well at 4° C. overnight. After blocking with 3% BSA at 37° C., samples subjected to gradient dilution (the uncoupled CD8α single domain antibody was a standard substance) were added to act for 1 hour at 37° C. Then, anti-his-HRP (purchased from Abcam Company) was added to react for 1 hour at room temperature. Then, a chromogenic solution was added, and the absorption value at 450 nm was read.

CD8α-cHis fusion protein = target: T3, CD8α-cHis fusion protein (UniProt P01732 22-182); assay: BLI (ForteBio Octet), biotinylated antibody on SA sensor, CD8α-chis 6.25-100 nM
T3 construct: not shown: C-terminal His tag
T3 sequence (P01732 22-182): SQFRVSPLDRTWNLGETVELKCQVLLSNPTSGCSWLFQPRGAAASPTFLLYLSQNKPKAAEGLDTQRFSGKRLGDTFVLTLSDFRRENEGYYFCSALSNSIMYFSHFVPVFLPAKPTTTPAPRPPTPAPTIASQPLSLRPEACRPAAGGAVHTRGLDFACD
Description: The anti-CD8α single domain antibody-biontin was fixed on an SA biological sensor. Then, CD8α-chis with a concentration of 6.25-100 nM bound to a nano antibody and then dissociated. The binding dynamic variables of four antibodies C37, C42, C46 and S5 were evaluated and determined by using Octet Data Analysis version 9.0, including Kon, Koff and Kd.

CD8α-Fc fusion protein [7] = target: T1, CD8α-Fc fusion protein; assay: ELISA on coated CD8α-Fc, NOTA conjugate, relative to the uncoupled antibody as standard
Description: as §4, §5

CD8α-Fc fusion protein [8] = target: T1, CD8α-Fc fusion protein; assay: ELISA on coated CD8α-Fc; C2-cHis is the control (=100)
Description: as §1

T1 sequence (chain, as listed by the source): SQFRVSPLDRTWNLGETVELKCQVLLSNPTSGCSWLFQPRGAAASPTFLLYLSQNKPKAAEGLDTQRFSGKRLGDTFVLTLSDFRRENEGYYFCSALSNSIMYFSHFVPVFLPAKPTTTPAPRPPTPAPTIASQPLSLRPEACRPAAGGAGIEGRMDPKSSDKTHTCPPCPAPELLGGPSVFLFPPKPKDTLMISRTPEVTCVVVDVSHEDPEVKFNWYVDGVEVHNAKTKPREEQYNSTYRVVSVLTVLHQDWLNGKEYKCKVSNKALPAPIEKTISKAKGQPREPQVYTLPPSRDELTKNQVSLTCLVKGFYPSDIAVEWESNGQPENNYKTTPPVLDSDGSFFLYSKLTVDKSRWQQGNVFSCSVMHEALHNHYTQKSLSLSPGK

Binder	Relative activity (%) (CD8α-Fc fusion protein [1])	EC50 (CD8α-Fc fusion protein [2])	Positive rate (%) [3] [%]	also measured
S13-cHis antibody (VHH, HEK293 construct; an E. coli preparation is also described) VHH: QLQLVESGGGLVQPGGSLRLSCVVSGSIFAINTMGWYRQAPGKQRELVATMHSYGSTNYADSVKGRFTISRDNAKKTVYLQMNSLKPADTAVYYCHADDTGWGTVDSWGQGTQVTVSS	142	2.89 ng/mL	96.3	
C27-cHis antibody (VHH, HEK293 construct; an E. coli preparation is also described) VHH: QLQLVESGGGLVQPGGSLRLSCVVSGSIFAINTMGWYRQAPGKQRELVATMHSGGSTNYADSVKGRFTISRDAAPKTVYLQMNSLKPADTAVYYCHADDSGWGTVDSWGQGIQVTVSS	96.4	2.28 ng/mL	93.6	
C24-cHis antibody (VHH, HEK293 construct; an E. coli preparation is also described) VHH: QVQLVESGGGLVQPGGSLRLSCAASGPIFSINTMGWYRQAPGKQRELVATMHSTGSTNYADSVKGRFTISRDNAKKTVYLQMNSLKPDDTAVYYCHVDDTGWGTVDSWGQGIQVTVSS	47.9	4.59 ng/mL	99.4	
^125I-SNA006c (VHH, 125I label by the chloramine T method; labelled residues not stated) VHH: QVQLVESGGGLVQAGGSLRLSCAASGVTFDDLAIGWFRQVPGKGREGVSTIGTSDGTAYYADSVKGRFTISSDNAKNTVYLQMNSLKPEDTAVYYCAVDLDYGLGSLLPMGYDYWGQGTQVTVSS				Kd [4]: 3.8 nM; Kd [5]: 3.84 nM
C46-cHis antibody (VHH, HEK293 construct; an E. coli preparation is also described; Biotinylated for the ForteBio assay; also called SNA006c; SNA006-c) VHH: QVQLVESGGGLVQAGGSLRLSCAASGVTFDDLAIGWFRQVPGKGREGVSTIGTSDGTAYYADSVKGRFTISSDNAKNTVYLQMNSLKPEDTAVYYCAVDLDYGLGSLLPMGYDYWGQGTQVTVSS	175	1.82 ng/mL	99.5	Relative activity of CD8α-cHis-NaHCO3 (%) (CD8α-Fc fusion protein [6]): 76%; Kd (CD8α-cHis fusion protein): 1.08 nM; koff (CD8α-cHis fusion protein): 0.000271 s⁻¹; kon (CD8α-cHis fusion protein): 251000 M⁻¹ s⁻¹
C46-cHis-NOTA (VHH, p-SCN-Bn-NOTA coupled (lysine); sites and number not stated, also called CD8α-cHis-NOTA (C46)) VHH: QVQLVESGGGLVQAGGSLRLSCAASGVTFDDLAIGWFRQVPGKGREGVSTIGTSDGTAYYADSVKGRFTISSDNAKNTVYLQMNSLKPEDTAVYYCAVDLDYGLGSLLPMGYDYWGQGTQVTVSS				Relative activity of CD8α-cHis-NOTA (%) (CD8α-Fc fusion protein [7]): 20%
C42-cHis antibody (VHH, HEK293 construct; an E. coli preparation is also described; Biotinylated for the ForteBio assay; also called SNA006b; SNA006-b) VHH: QVQLVESGGGLVQAGGSLRLSCAASGLTFEDYAIGWFRQAPGKEREGISCIRIYDGNTYSAESVKGRFTISSDNAKNQVYLQINTLKPEDTAVYYCAAGSYYSCSVYPDYDMDYWGKGTLVTVSS	269	1.18 ng/mL	99.9	Kd (CD8α-cHis fusion protein): 0.727 nM; koff (CD8α-cHis fusion protein): 0.00042 s⁻¹; kon (CD8α-cHis fusion protein): 578000 M⁻¹ s⁻¹
C37-cHis-NOTA (VHH, p-SCN-Bn-NOTA coupled (lysine); sites and number not stated, also called CD8α-cHis-NOTA (C37); NOTA-CD8α single domain antibody precursor) VHH: QLQLVESGGGLVQAGGSLRLSCAASGLTFEDYAIGWFRQAPGKEREGISCIRIYDGNTYSAESVKGRFTISSDNAKNQVYLQINTLKPEDTAVYYCAAGSYYSCSVYPDYDMDYWGKGTLVTVSS				Relative activity of CD8α-cHis-NOTA (%) (CD8α-Fc fusion protein [7]): 77%
^125I-SNA006a (VHH, 125I label by the chloramine T method; labelled residues not stated) VHH: QLQLVESGGGLVQAGGSLRLSCAASGLTFEDYAIGWFRQAPGKEREGISCIRIYDGNTYSAESVKGRFTISSDNAKNQVYLQINTLKPEDTAVYYCAAGSYYSCSVYPDYDMDYWGKGTLVTVSS				Kd [4]: 0.46 nM
S5-cHis-NOTA (VHH, p-SCN-Bn-NOTA coupled (lysine); sites and number not stated, also called CD8α-cHis-NOTA (S5)) VHH: QVQLVESGGGLVQAGGSLRVSCAASGGTFSSTAMGWFRQAPGKEREFVAAISWSGGYTYYADSVRGRFTISRDNALNTVSLQMNSLKPEDTAVYYCAADISGLDTVAAGIFTEPNIDYWGKGTLVTVSS				Relative activity of CD8α-cHis-NOTA (%) (CD8α-Fc fusion protein [7]): 105%
^125I-SNA006d (VHH, 125I label by the chloramine T method; labelled residues not stated) VHH: QVQLVESGGGLVQAGGSLRVSCAASGGTFSSTAMGWFRQAPGKEREFVAAISWSGGYTYYADSVRGRFTISRDNALNTVSLQMNSLKPEDTAVYYCAADISGLDTVAAGIFTEPNIDYWGKGTLVTVSS				Kd [4]: 1.5 nM
C29-cHis antibody (VHH, HEK293 construct; an E. coli preparation is also described) VHH: QVQLVESGGGLVQAGGSLRLSCVASGFTSDDYVIGWFRQAPGKEREGVSCISSSDGTTNYADSVKGRFTISSDNAKNTVYLQMNSLKPEDTAVYYCAADPMRVCPYSGTYYGILGFGTSGQGTQVTVSS	61.9	3.55 ng/mL	98.4	

Second part, led by results:

Relative activity (%) (CD8α-Fc fusion protein [1])	EC50 (CD8α-Fc fusion protein [2])	Positive rate (%) [3] [%]	Binder	also measured
	2.2 ng/mL and 3.18 ng/mL and 4.11 ng/mL	99.9	C2-cHis antibody (VHH, HEK293 construct; An E. coli (PET22b) preparation is also described) VHH: QVQLVESGGGLVQPGGSLRLSCAASGFTLDYYAIGWFRQAPGKEREGISCIRIYDGNTYSAESVKGRFTISSDNAKNQVYLQINTLKPEDTAVYYCAAGSYYSCSVYPDYDMDYWGKGTLVTVSS	Relative activity (%) (CD8α-Fc fusion protein [8]): 100%
180	2.28 ng/mL	99.7	S5-cHis antibody (VHH, HEK293 construct; an E. coli preparation is also described; Biotinylated for the ForteBio assay; also called SNA006d; SNA006-d) VHH: QVQLVESGGGLVQAGGSLRVSCAASGGTFSSTAMGWFRQAPGKEREFVAAISWSGGYTYYADSVRGRFTISRDNALNTVSLQMNSLKPEDTAVYYCAADISGLDTVAAGIFTEPNIDYWGKGTLVTVSS	Relative activity of CD8α-cHis-NaHCO3 (%) (CD8α-Fc fusion protein [6]): 98%; Kd (CD8α-cHis fusion protein): 2.87 nM; koff (CD8α-cHis fusion protein): 0.000445 s⁻¹; kon (CD8α-cHis fusion protein): 155000 M⁻¹ s⁻¹
289	1.42 ng/mL	99.7	S36-cHis antibody (VHH, HEK293 construct; an E. coli preparation is also described) VHH: QVQLVESGGGLVQAGGSLRLSCAASIRTFSDYAMAWFRQGPRKEREFVAAISWNGVTTFYADSVKGRFTISRDDAKNSVYLQMNSLKPEDTAVYYCAGGLNVGWGTHEREYDDWGQGTQVTVSS	
